Data as given in the nanobody polyreactivity screen of Harvey et al. (2022).

Test: yeast display, Sf9 membrane polyspecificity reagent, FACS + sequencing; frameworks hold sequencing errors
How it was run: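 After 36–48 hours of galactose induction, yeast (Saccharomyces cerevisiae BJ5465) displaying a synthetic nanobody library were stained at 4 °C for 1 hour with 10% biotinylated, detergent-solubilized Sf9 membrane reagent. Streptavidin microbeads enriched the stained cells before FACS sorting into low and high (top ~1%) gates on anti-HA and streptavidin fluorescence. Each clone's polyreactivity label reflects its gate of origin.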
For “QVQLVESGGVLVQGGGSLRLSCAASGSIFPFYALGWYRQAPGKERELVATNSWSGGRTYYADSVKGRFTKSRDNAKTNVYLQINILIPEDTAVYYCAAGSYHYPNAYYYWGQGTQLTVSS”, the “polyreactivity (PSR sort gate)” value was “high polyreactivity”.
With “QVQLVESGIGLVQAGGSLRLSCAASGRTLGGNAMGWYRQAPGKERELVAAINWSGGITYYADSVKGRFTISRDNAKNTVYLQMNSLKPEDTAVYYCARYKYNRQTRVEYGYWGQGTLVTVSS” the “polyreactivity (PSR sort gate)” value was “high polyreactivity”.
In the case of “QVQLVESGRGLDQAGGSLRLICYASGRTFLYNAMGWFRQSPGKERELVAAIRWSGGTTYYADSVKGRFTISRDNSKNNVYLQMNSLKPEDTAIYYCAARWGQYYGGVRYGYWGQGTQVTVSS”, the “polyreactivity (PSR sort gate)” value is reported as “high polyreactivity”.
With “QVQLVESGRGLFHAGGSLRLSCAASGNTFGKYDMGWSIQAPGKERELVAAISKSSGSTYYADSVKGRFTISRDNAKNTVYFQMNSLKPEDTAVYYCAAEAYRYAWYDYWGQGTQVTVSS” the “polyreactivity (PSR sort gate)” value was “high polyreactivity”.
In the case of “QVQLVESGRGLFQAGGSLRISCAASGSTYQFYAMGWYRQAPGIERELVASIRVRSGTTYYADSVKGRFTISRDNAKNTVYLQMNSLKPEDTAVYYCASGRPYYGRKYDYWGQGTQVTVSS”, the “polyreactivity (PSR sort gate)” value is reported as “high polyreactivity”.
For “QVQLVESGRGLFQSGGSLRLSCAASGRTFVPYAMGWYRQAPGKESELVAAISYSGDSTYYADSVKGRFTISRDNAKNTVYLQMKSLIPEDTAVYYCAKRGPVRNTAYDYWGQGTQVTVSS”, the “polyreactivity (PSR sort gate)” value was “low polyreactivity”.
With “QVQLVESGRGLVLAGGSLRLSCAASGRIFRYYAMGWYRQATGKERELVAGISWRGSSTYYADSVKGRFTISRDNAKNTVYLQMNSLKPEDTAVYYCNRDQSYIPVTGGRFYYWGQGTQVTVSS” the “polyreactivity (PSR sort gate)” value was “high polyreactivity”.
For “QVQLVESGRGLVQAGCSLRLSCPASGIIFTTYDMGWYRQAPGKERELVAAISSSTTNTYYADSVKWRFTISRDNAMNTVYLQMNSLKPEETAVYYCAAPYKSNAGFDYWGQGTQVTVSS”, the “polyreactivity (PSR sort gate)” value was “low polyreactivity”.
With “QVQLVESGRGLVQAGGRLRLSCAASGRTFSRNAMGRYRQAPGKERELVAAISFRGVSTYYADSEKGRFTISRDNAKNTVYLQLNSLKPEDTAVYYCARRYTSKGGYDYWGQGTQVTVSS” the “polyreactivity (PSR sort gate)” value was “high polyreactivity”.
In the case of “QVQLVESGRGLVQAGGSLRISCAASGFTFSRYAMGWYRQAPGKERELVAAISLRGGRTYYADSVKGRFTISRDNAKNTVYLQMNSLKPEDTAVYYCNRDYRGPYYYWGQGTQVTVSS”, the “polyreactivity (PSR sort gate)” value is reported as “high polyreactivity”.
With “QVQLVESGRGLVQAGGSLRISCAASGSTFYPNAMGWYRQAPGKEREFVAAISTSAGRTYYADSVKGRFTISRDNAKNTVYLQMNSLKPEDTAVYYCNARYWVYYVYEFDSWGQGTQVTVSS” the “polyreactivity (PSR sort gate)” value was “low polyreactivity”.
In the case of “QVQLVESGRGLVQAGGSLRLISAASGSIFVHNTMGWYSQAPGKDRELVAAITYSGGSTNYADSVKGRFTISRDNAKNTVYLQMNSLKPEDTAVYYCATRAISQFHSLGYYYWGQGTEVTVSS”, the “polyreactivity (PSR sort gate)” value is reported as “low polyreactivity”.
With “QVQLVESGRGLVQAGGSLRLRCAASGRNIRAYAMGCYRQAPGTERDLVAAITWSGGGTYYADSVKGRFTISRDNAKNTVYLQMTSLKPEDTAVYYCAAVTTLRPSWKRYYYWGQGTQVTVSS” the “polyreactivity (PSR sort gate)” value was “high polyreactivity”.
In the case of “QVQLVESGRGLVQAGGSLRLSCAASGFTFLLNAMGWYRQAPGKERELVAAITYSGGSTYYADSVKGRFTISRDNAKNTVYLQMNSLKPEDTAVYYCAKTSVTISEYEYWGQGTQVTVSS”, the “polyreactivity (PSR sort gate)” value is reported as “low polyreactivity”.
For “QVQLVESGRGLVQAGGSLRLSCAASGFTFRNYAMGWYRQAPGKERELVAAITRRGGSTYYADSVKGRFTISRDNAKNTVYLQMNSLKTEDTAVYYCNADREVPWGKDNLDYWGQGTQVTVSS”, the “polyreactivity (PSR sort gate)” value was “high polyreactivity”.
With “QVQLVESGRGLVQAGGSLRLSCAASGFTFRYYAMGWYRQAPGTERELVAAITYSGGGTYYADSVKGRFTISRDNANYTVYLQMNSLKPEDSAVYYCARRGRKAYAYWGQGTQVTVSS” the “polyreactivity (PSR sort gate)” value was “high polyreactivity”.
In the case of “QVQLVESGRGLVQAGGSLRLSCAASGGTFSPYAMGWYSQGPGKDRELVASITGSGGSTYYADSVKGRFTISRGNATTTVNLQMTSLNPEDTAVYYCAAQGYWTYWPYLLRLYDYWGQGTQVTVSS”, the “polyreactivity (PSR sort gate)” value is reported as “low polyreactivity”.
For “QVQLVESGRGLVQAGGSLRLSCAASGLILGVNVMGWYRQAPGKERELVAAISGGGRTYYADSVKGRFTISRDNAKNTVYLQMNSLKPDDTAVYYCATVRRRLSLTYDYWGQVTQVTVSS”, the “polyreactivity (PSR sort gate)” value was “high polyreactivity”.
In the case of “QVQLVESGRGLVQAGGSLRLSCAASGRIFGIYAMGWHRQAPGKEMELVATITDGTITNYADSVKGRFTISRDNAKNTVYLQMNSLKPEDTAVYYCAAGTQAHAYVVRPIEMDYWGQGTQVTVSS”, the “polyreactivity (PSR sort gate)” value is reported as “low polyreactivity”.
In the case of “QVQLVESGRGLVQAGGSLRLSCAASGRIFGRNTIGWYRQAPRKEREMVAVISFRGGSTYADSVKGRFTISRDNAKNTVYLQMNSLKPEDTAVYYCARTAYSTRPYRFDYWGQGTQVTVSS”, the “polyreactivity (PSR sort gate)” value is reported as “high polyreactivity”.
With “QVQLVESGRGLVQAGGSLRLSCAASGRIFPFYAMGWYRQAPGKERELVAAISSSGGSTYYADSVKGRFTISRDNAKNTVYLQMNSLKPEDTAVYYCAATRNSDGMGYWGQGTLVTVSS” the “polyreactivity (PSR sort gate)” value was “low polyreactivity”.
For “QVQLVESGRGLVQAGGSLRLSCAASGRIFRSYAMGWYIPAPGKERELFAAISRSGGSTYYADSVKGRFTISRDNGKNTVYLQMNSLKPEDTAVYYCASRYSLGTNSKFFAYGYWGQGTQVNVSS”, the “polyreactivity (PSR sort gate)” value was “high polyreactivity”.
In the case of “QVQLVESGRGLVQAGGSLRLSCAASGRTFGYYAMGWYRKAPGKERELVAASTYSGARTYYADSVKGRFTISRDNAKNTVYLQRNSLKPEDTAVYYCAADTYYDDGYYYWCQGTQVTVSS”, the “polyreactivity (PSR sort gate)” value is reported as “high polyreactivity”.
With “QVQLVESGRGLVQAGGSLRLSCAASGRTFWYYAMGWYRQAPGKERELDARISSSGGSTYADSVKGRFTISRDNAKNTVYLHMNSLKPEDTAVYYCAADRHYWKADPSQGYQHYYWGQGTQVTVSS” the “polyreactivity (PSR sort gate)” value was “high polyreactivity”.
In the case of “QVQLVESGRGLVQAGGSLRLSCAASGRTFYSNAMGWYRQAPGKERELVAGINWSGVSTYYADSVKGRFTISRDNAKNTVYLQMNSLKPEDTAVYYCAADTYAGYNGNYWGQGTQVTVSS”, the “polyreactivity (PSR sort gate)” value is reported as “high polyreactivity”.
In the case of “QVQLVESGRGLVQAGGSLRLSCAASGSICGYYTMGWYRQAPGKERELVAAITSGGSTNYADSVKGRFTISRDNAKNTVYLQMNSLKPEDTAVYYCAKVSYYPWRYDYWGQGTQVTVSS”, the “polyreactivity (PSR sort gate)” value is reported as “low polyreactivity”.
For “QVQLVESGRGLVQAGGSLRLSCAASGSIFEINAMGWYRQAPGIERELVAAITGSGGSTHYADSVKGRFTISRDNAKNTVSLQMNSLKPEDTAVYYCAAVPRYQYGYWGQGTQVTVSS”, the “polyreactivity (PSR sort gate)” value was “low polyreactivity”.
In the case of “QVQLVESGRGLVQAGGSLRLSCAASGSIFGGNGRGWSRQAPGKERELVAAITYSGGSTYYADSVKGRFTISRDNAKNTVYFQMNSLKPEDTAVYYCAKPSRVSIGYDYWGQGTQVTVSS”, the “polyreactivity (PSR sort gate)” value is reported as “low polyreactivity”.
With “QVQLVESGRGLVQAGGSLRLSCAASGSIFISYAKGWYRQAPGKERELVAAITWSGDSTYYADSVKGRFTISRDNAKNTVYLQMNSLKPEDTAVYYCAKGQSRSLIYGRYGYWGQGTQVTVSS” the “polyreactivity (PSR sort gate)” value was “low polyreactivity”.
For “QVQLVESGRGLVQAGGSLRLSCAASGSIFRRYAMGWYRQAPGKERELVAGITRSGGNTYYADSVKGRFTISRDNAKNTVYLQMNSLKPEDTAVYYCAARHRYNIRTYDAWGQGTQVTVSS”, the “polyreactivity (PSR sort gate)” value was “high polyreactivity”.
With “QVQLVESGRGLVQAGGSLRLSCAASGSNFRAYAMGWSRQAPGKERELVAAISIGGRTYYADSVKGRFTISRDNAKNTVYLQMNSLKPEDTAVYYCAAVRSYVKGGMYYWGQGTQVTVSS” the “polyreactivity (PSR sort gate)” value was “low polyreactivity”.
In the case of “QVQLVESGRGLVQAGGSLRLSCAASGSTFGWYSMGWYRQAPGKERELVTAITSSGDSTYYADSVKGRFTISRDNAKNTVYLQMNSLKPEDTAVYYCAADYADLNDYWGQGTQVTVSS”, the “polyreactivity (PSR sort gate)” value is reported as “low polyreactivity”.
With “QVQLVESGRGLVQAGGSLRLSCAASGSTFIPYVMGWYRKAPGKEREFVAAIRWSGGRTRYADSVKGRFTLSRDNAKNTVYLQMNSLKPEDTAVYYCAAYRLSKPFYKYDYWGQGTQVTVSS” the “polyreactivity (PSR sort gate)” value was “high polyreactivity”.
For “QVQLVESGRGLVQAGGSLRLSCAASGSTFRYNTMGSYRQAPGKERELVAAITGGGGSTYYADSVKGRFTISRDNAKNTVYLQMNSMKPEDTAVYYCATRSYALGYDYGGQGTQVTVSS”, the “polyreactivity (PSR sort gate)” value was “low polyreactivity”.
For “QVQLVESGRGLVQAGGSLRLSCAASGSTFSRYTMGWYRQAPGKERELVAAISYRGGSTYYADSVKGRFTISRDNAKNTVYLQMNSLKPEDTAVYYRAAEYRVEGSDYDYWGQGTQVTVSS”, the “polyreactivity (PSR sort gate)” value was “low polyreactivity”.
With “QVQLVESGRGLVQAGGSLRLSCAASGYIFVYNAMGWYRQAPGKERELVAAITDGGGSTYADSVKGRFTISRDNAKNTVYLQMMSLNPEDTADYYCAARYSDTTWYVLYYYWGQGTQVTVSS” the “polyreactivity (PSR sort gate)” value was “low polyreactivity”.
For “QVQLVESGRGLVQAGGSLRLSCASSGRIFRYYDMGWYRQAPGKERDFVAAITRSGAITYYADSVKGRFTISRDNAKNTVYLQMNSLKPEDTAVYYCNADFQDRTYDYDYWGQGTQVTVSS”, the “polyreactivity (PSR sort gate)” value was “low polyreactivity”.
With “QVQLVESGRGLVQAGGSLRLSCASSGTILERYVMGWYRQAPGKERELVAAITISRGSTYYADSVKGRFTISRDNAKNTVYLEMTRLKPEDTAVYYCAARNRYWGQGTKVTVSS” the “polyreactivity (PSR sort gate)” value was “high polyreactivity”.
For “QVQLVESGRGLVQAGGSLRLSCAVSGSIGVYAMGWYRQAPGKERELVAAISKRGGSTRYADSVKGRFTISRDNAKNTVYLQMNSLKPEDTAVYYCAATGSVTGPRYAYDYWGQGTQVTVSS”, the “polyreactivity (PSR sort gate)” value was “high polyreactivity”.
In the case of “QVQLVESGRGLVQAGGSLRLSCPASGRTFSTNAMGWYRQAPGKEREFVAVISSSSGSTYYADSVKGRFTISRDNAKNTVYLQMNSLKPEDTAVYYCAAGYRYRVSYSVYEFYYWGQGTQVTVSS”, the “polyreactivity (PSR sort gate)” value is reported as “high polyreactivity”.
With “QVQLVESGRGLVQAGGSLRLSSAASGSTFVNYDMGWYRQATGKERELVAAITSSGDSTYYADSVKGRFTISRDNAKNTVYLQMNSLKPEDTAVYYCNRDDAGIMDYWGQGTQVTVSS” the “polyreactivity (PSR sort gate)” value was “low polyreactivity”.
With “QVQLVESGRGLVQAGVSLRLSCAASGFIFYDYAMGWYRPAPGTERELVAAISSGGSTNYADSVKGLFTISRDNAKNTVYLQMNSLKPEDTAVYYCAADVRSYATWKRDYDYWGQGTQVTVSS” the “polyreactivity (PSR sort gate)” value was “low polyreactivity”.
For “QVQLVESGRGLVQAGVSLRLSCAASGRIFTYYAMGWYRQAPGKERELVAAITTRGGRTRYADSVKGRFTISRDNAKITVYLQMNSLKPEDTAVYYCARGHSSVGPQYDYWGQGTQVTVSS”, the “polyreactivity (PSR sort gate)” value was “high polyreactivity”.
